Results taken from patent US20260317430 (published 2026).

T1: mouse FGFR2b (mouse, UniProt P21803)
T1 chain: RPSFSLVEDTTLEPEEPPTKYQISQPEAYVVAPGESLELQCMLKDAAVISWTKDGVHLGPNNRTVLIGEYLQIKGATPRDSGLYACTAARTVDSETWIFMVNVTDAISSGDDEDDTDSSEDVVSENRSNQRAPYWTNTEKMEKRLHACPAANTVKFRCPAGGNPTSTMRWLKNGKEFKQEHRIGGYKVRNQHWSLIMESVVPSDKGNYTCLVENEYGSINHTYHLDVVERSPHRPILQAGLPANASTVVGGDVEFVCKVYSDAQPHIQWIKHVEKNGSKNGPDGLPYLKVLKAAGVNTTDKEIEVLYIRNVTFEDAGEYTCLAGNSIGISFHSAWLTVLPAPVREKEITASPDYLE


Key:
[1] = target: T2, human FGFR2b extracellular domain (human, UniProt P21802); assay: ELISA
[2] = target: T1, mouse FGFR2b; assay: BLI
[3] = target: human FGFR2b on KATO III cells (human, UniProt P21802); assay: FACS
[4] = target: T2, human FGFR2b extracellular domain; assay: BLI

T2 sequence (P21802 22-377): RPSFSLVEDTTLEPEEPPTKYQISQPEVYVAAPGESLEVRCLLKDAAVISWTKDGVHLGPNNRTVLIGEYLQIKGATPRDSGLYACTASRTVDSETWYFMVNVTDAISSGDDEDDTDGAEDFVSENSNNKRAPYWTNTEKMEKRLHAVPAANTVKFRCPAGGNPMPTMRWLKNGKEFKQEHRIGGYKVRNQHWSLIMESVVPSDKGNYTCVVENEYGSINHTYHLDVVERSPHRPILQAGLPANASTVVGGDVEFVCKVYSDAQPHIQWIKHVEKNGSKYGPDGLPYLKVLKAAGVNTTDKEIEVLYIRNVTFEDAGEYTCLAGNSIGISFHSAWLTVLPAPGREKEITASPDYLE
Chain of human FGFR2b on KATO III cells (P21802 22-377): as above

Binder | EC50 [1] [µg/mL] | Kd [2] [nM] | EC50 [3] [µg/mL] | Kd [4] [nM]
1A3 (antibody, V domains shown) VH: QVQLQQPGAELVKPGASVKMSCKASGYTFASYNLHWVKQTPGQGLEWIGLIYPENGDTSYNQKFKGKATLTADKSSSTAYIQLSSLTSEDSAVYFCARGGFDYWGQGTTLTVSQ VL: DIQMTQSPASLSASVGETVTITCGASENIYGALNWYQRKQGKSPQLLIYGATNLADGMSSRFSGSGSGRQYSLKISSLHPDDVATYYCQNVLSTPYTFGGGTKLEIK | 0.00818 | 99.8 | 0.0656 | 12.2
1G6 (antibody, V domains shown) VH: EIQLQQSGAELVKPGASVKMSCKASGYTFRYYNMHWVKRTPGQGLEWIGLIYPDNGDTSYNQKFKGKATLTADTSSSTAYMQLSSLTSEDSAVYYCARGGLDYWGQGTSLTVSS VL: NIVMTQSHKFMSTSVGDRVSITCKASQDVNTDVAWYQQKPGQSPKLLIYSASYRYTGVPTRFTGSGSGTDFTFTISGVQAEDLADYYCQQHYNTPYTFGGGTKLELK | 0.0235 | 42.2 | 0.186 | 3.97
2B2 (antibody, V domains shown) VH: QLQLQQSGAELVKPGASVKMSCKASGYTFASYNLHWVKQTPGQGLEWIGLIYPENGDTSYNQKFKDKATLTADKSSTTAYIQLSSLASEDSAVYFCARGGFDYWGQGTTLTVSS VL: DIVMTQSQKFMSTSVGDRVSVTCKASQNVGTNVAWYQQKPGQSPKALIYSASYRYSGVPDRFTGSGSGTDYTLTISSVQAEDLALYYCQQHYSTPYTFGGGTKLELK | 0.0216 | 53.5 | 0.233 | 6.18
1C10 (antibody, V domains shown) VH: QVQLQQSGAELVKPGASVKMSCKASGYTFRYYNMHWVKRTPGQGLEWIGLIYPDNGDTSYNQKFKGKATLTADTSSSTAYMQLSSLTSEDSAVYYCARGGLDYWGQGTSLTVSS VL: DIVMTQSPASLSASVGETVTITCRASGNIHNYLAWYQQKQGKSPQLLVYNAKTLADGVPSRFSGSGSGTQYSLKINSLQPEDFGSYYCQHFWSTPYTFGGGTKLEMK | 0.0159 | 75.6 | 0.152 | 11.1

Further lines, results first:

EC50 [1] [µg/mL] | Kd [2] [nM] | EC50 [3] [µg/mL] | Kd [4] [nM] | Binder
0.0147 | 33.9 | 0.117 | 7.6 | 3B7 (antibody, V domains shown) VH: EVQLQQSGAELVKPGASVKMSCKASGYTFRYYNMHWVKRTPGQGLEWIGLIYPDNGDTSYNQKFKGKATLTADTSSSTAYMQLSSLTSEDSAVYYCARGGFDYWGQGTTLTVSS VL: DIQMTQSPASLSASVGETVTITCGASENIYGALNWYQRKQGKSPQLLIYGATNLADGMSSRFSGSGSGRQYSLKISSLHPDDVATYYCQNVLSTPYTFGGGTKLELK
0.0278 | 23.8 | 0.161 | 5.69 | 3H9 (antibody, V domains shown) VH: EIQLQQSGAELVKPGASVKMSCKASGYTFSFYNMHWVKRTPGQGLEWIGLIYPDNGDTSYNQKFKGKATLTADTSSSTAYMQLSSLTSEDSAVYYCARGGLDYWGQGTTLTVSS VL: DIVLTQSPASLSVSVGETVTITCRASENIYSNLAWYQQKQGKSPQLLVYAATNLADGVPSRFSGSGSGTQYSLKINSLQSEDFGSYYCQHFWGTPYTFGGGTKLELK
0.0235 | 36.5 | 0.236 | 4.45 | 3E2 (antibody, V domains shown) VH: EIQLQQSGAELVKPGASVKMSCKASGYTFSFYNMHWVKRTPGQGLEWIGLIYPDNGDTSYNQKFKGKATLTADTSSSTAYMQLSSLTSEDSAVYYCARGGLDYWGQGTSLTVSS VL: NIVMTQSQKFMSTSVGDRVSVTCKASQNVGTNVAWYQQKPGQSPKALIYSASYRYTGVPDRFTGSGSGTDFTFTISSVQAEDLAVYYCQQHYSTPYTFGGGTKLEIK
0.0276 | 41.9 | 0.149 | 6.25 | 3G10 (antibody, V domains shown) VH: EVQLQQSGPELVKPGASVKMSCKASGYTFATYNMHWVKQTTGQGLEWIGAIYPDNGDTFYNRKFKDKATLTADKSSTTAYMQLSSLTSEDSAVYYCARGDFAYWGQGTLVTVSA VL: DVLMTQSPASLSASVGETVTITCGASENIYGALNWYQRKQGKSPQLLIYGATNLADGMSSRFSGSGSGRQYSLKISSLHPDDVATYYCQNVLSTPYTFGGGTKLEMK
